Test results taken from patent US20240002331A1 (TIDAL THERAPEUTICS, published 2024).
Values belong to the molecule of their own block, whether it stands above or below them.

Assays:
[1] = target: mouse CD8 on primary murine T-cells (murine) (UniProt P01731); assay: in vivo, DiI-labelled targeted LNPs injected i.v. in BALB/c mice, flow cytometry of blood 24 hours after injection; untargeted LNPs <2%
[2] = target: mouse CD4 on primary murine T-cells (murine) (UniProt P06332); assay: in vivo, DiI-labelled targeted LNPs injected i.v. in BALB/c mice, flow cytometry of blood 24 hours after injection; untargeted LNPs ˜2%
mouse CD4 on primary murine T-cells (murine), sequence (P06332 27-457): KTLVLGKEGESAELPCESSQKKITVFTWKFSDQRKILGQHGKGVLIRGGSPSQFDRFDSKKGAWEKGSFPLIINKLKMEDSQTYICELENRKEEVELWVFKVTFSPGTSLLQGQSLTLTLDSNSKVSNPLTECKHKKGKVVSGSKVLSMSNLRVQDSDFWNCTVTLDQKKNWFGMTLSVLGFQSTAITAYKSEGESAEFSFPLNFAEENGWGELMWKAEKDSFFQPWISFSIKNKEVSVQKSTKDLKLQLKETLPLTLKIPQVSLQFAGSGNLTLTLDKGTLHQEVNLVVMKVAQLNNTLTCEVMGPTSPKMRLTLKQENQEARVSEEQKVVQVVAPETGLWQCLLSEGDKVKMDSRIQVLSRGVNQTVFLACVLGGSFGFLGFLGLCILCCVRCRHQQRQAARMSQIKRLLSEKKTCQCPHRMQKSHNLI

[3] = target: T1, human CD7 on primary human T-cells (human, UniProt P09564 26-240); assay: DiI-labelled LNP with inserted Nb conjugate on primary human CD3+ T cells, flow cytometry
T1 construct: whole, on cells
T1 sequence (looked up): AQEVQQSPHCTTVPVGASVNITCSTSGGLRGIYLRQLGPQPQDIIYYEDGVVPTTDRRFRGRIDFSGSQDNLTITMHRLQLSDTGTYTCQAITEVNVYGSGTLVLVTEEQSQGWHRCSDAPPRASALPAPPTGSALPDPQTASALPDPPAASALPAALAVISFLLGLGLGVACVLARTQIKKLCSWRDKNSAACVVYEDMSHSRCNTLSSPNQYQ

[4] = target: T2, human CD2 on primary human T-cells (human, UniProt P06729 25-351); assay: DiI-labelled LNP with inserted Fab conjugate on primary human CD3+ T cells, flow cytometry
T2 construct: whole, on cells
T2 sequence (looked up): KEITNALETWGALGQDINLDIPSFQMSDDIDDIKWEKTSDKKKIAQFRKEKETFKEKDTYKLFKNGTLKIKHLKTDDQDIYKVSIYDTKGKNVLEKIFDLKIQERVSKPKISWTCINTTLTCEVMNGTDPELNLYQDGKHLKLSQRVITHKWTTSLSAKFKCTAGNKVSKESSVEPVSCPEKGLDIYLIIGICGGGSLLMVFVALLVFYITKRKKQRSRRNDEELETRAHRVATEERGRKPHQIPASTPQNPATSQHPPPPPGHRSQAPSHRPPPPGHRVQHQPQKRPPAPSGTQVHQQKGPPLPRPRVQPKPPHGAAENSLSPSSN

[5] = target: T3, CD20 on Raji (B-cell) cells (UniProt P11836 1-297, limits assumed); assay: cell-based or functional assay
T3 sequence (looked up): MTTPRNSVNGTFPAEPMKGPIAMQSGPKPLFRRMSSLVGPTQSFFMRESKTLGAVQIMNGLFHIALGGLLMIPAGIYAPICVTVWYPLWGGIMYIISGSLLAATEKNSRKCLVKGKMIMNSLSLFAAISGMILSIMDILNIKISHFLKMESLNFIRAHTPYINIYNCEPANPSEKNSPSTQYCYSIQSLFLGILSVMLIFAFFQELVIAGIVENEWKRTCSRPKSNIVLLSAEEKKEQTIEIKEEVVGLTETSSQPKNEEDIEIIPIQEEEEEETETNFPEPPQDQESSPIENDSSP

[6] = target: T4, human CD8 on primary human cells (CD8 T-cells, NK-cells) (human, UniProt P01732 22-235); assay: DiI-labelled LNP with inserted Fab conjugate, human whole blood, 24 h, flow cytometry (% DiI+ and DiI MFI) on CD4 and CD8 T-cells
T4 construct: whole, on cells; also called CD8 receptor
T4 sequence (P01732 22-235): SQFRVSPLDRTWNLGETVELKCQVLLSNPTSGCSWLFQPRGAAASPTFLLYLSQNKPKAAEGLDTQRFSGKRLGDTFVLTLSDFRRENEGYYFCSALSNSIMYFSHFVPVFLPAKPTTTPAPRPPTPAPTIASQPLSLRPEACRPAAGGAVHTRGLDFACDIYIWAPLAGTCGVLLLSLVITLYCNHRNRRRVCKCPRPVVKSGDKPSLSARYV

mouse CD8 on primary murine T-cells (murine), sequence (P01731 28-247): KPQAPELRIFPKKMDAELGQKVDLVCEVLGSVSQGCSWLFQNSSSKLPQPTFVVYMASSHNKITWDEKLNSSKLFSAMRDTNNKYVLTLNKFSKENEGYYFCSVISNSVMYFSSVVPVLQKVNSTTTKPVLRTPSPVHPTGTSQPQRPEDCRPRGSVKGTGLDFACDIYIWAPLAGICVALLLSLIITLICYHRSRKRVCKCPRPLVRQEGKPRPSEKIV

binding result [4]: binds
B2: anti-CD2 TS2/18.1 Fab NoDS, lipid conjugate (Fab, V domains shown)
VH: EVQLVESGGGLVMPGGSLKLSCAASGFAFSSYDMSWVRQTPEKRLEWVAYISGGGFTYYPDTVKGRFTLSRDNAKNTLYLQMSSLKSEDTAMYYCARQGANWELVYWGQGTLVTVSA
VL: DIVMTQSPATLSVTPGDRVFLSCRASQSISDFLHWYQQKSHESPRLLIKYASQSISGIPSRFSGSGSGSDFTLSINSVEPEDVGVYFCQNGHNFPPTFGGGTKLEIKR
modifications: DSPE-PEG-maleimide coupled to the C-terminal cysteine in the heavy chain (methods of Example 4)
notes: Inserted in LNPs

binding result [6]: no binding
B4: mutOKT8-Fab (non-functional mutated OKT8), DSPE-PEG (2k) lipid conjugate (Fab, V domains shown)
VH: QVQLVQSGAEDKKPGASVKVSCKASGFNIKDTYIHWVRQAPGQGLEWMGRIDPANDNTLYASKFQGRVTITADTSSNTAYMELSSLRSEDTAVYYCGRGAGAYVFDHWGQGTTVTVSS
VL: DIVMTQSPSSLSASVGDRVTITCRTSRSISAALAWYQEKPGKAPKLLIYSGSTLQSGVPSRFSGSGSGTDFTLTISSLQPEDFATYYCQQHNENPLTFGQGTKVEIKR
modifications: DSPE-PEG (2k)-maleimide coupled to the C-terminal cysteine in the heavy chain (conjugated using similar methods as hSP34)
notes: Negative control, inserted in mRNA LNPs; also called muOKT8

binding result [4]: binds
B5: anti-CD2 9.6 Fab NoDS, lipid conjugate (Fab, V domains shown)
VH: QVQLQQPGAELVRPGSSVKLSCKASGYTFTRYWIHWVKQRPIQGLEWIGNIDPSDSETHYNQKFKDKATLTVDKSSGTAYMQLSSLTSEDSAVYYCATEDLYYAMEYWGQGTSVTVSS
VL: NIMMTQSPSSLAVSAGEKVTMTCKSSQSVLYSSNQKNYLAWYQQKPGQSPKLLIYWASTRESGVPDRFTGSGSGTDFTLTISSVQPEDLAVYYCHQYLSSHTFGGGTKLEIKR
modifications: DSPE-PEG-maleimide coupled to the C-terminal cysteine in the heavy chain (methods of Example 4)
notes: Inserted in LNPs

Second part, the molecule before the results:

Molecule: anti-mouse CD8 Fab YTS156.7.7, inserted in LNPs
% of CD3+CD8+ T-cells in the blood with LNP-association (DiI+) [1]: 78%

Molecule: anti-mouse CD4 Fab GK1.5, inserted in LNPs
% of the CD3+CD4+ cell population DiI-positive [2]: 67%

B1: Anti-CD7 V1 Nb, lipid conjugate (VHH)
VHH: DVQLQESGGGLVQAGGSLRLSCAVSGYPYSSYCMGWFRQAPGKEREGVAAIDSDGRTRYADSVKGRFTISQDNAKNTLYLQMNRMKPEDTAMYYCAARFGPMGCVDLSTLSFGHWGQGTQVTVSI
modifications: conjugated to DSPE-3.4K PEG-maleimide (the cysteine is not named in the example)
notes: The entry includes the C-terminal spacer, cysteine and His tag; Inserted in LNPs; also called αCD7
binding result [3]: binds

B3: TTR-023 anti-CD20 (Leu-16) CAR (other)
chain: DYKAKEVQLQQSGAELVKPGASVKMSCKASGYTFTSYNMHWVKQTPGQGLEWIGAIYPGNGDTSYNQKFKGKATLTADKSSSTAYMQLSSLTSEDSADYYCARSNYYGSSYWFFDVWGAGTTVTVSSGGGSGGGSGGGGSSDIVLTQSPAILSASPGEKVTMTCRASSSVNYMDWYQKKPGSSPKPWIYATSNLASGVPARFSGSGSGTSYSLTISRVEAEDAATYYCQQWSFNPPTFGGGTKLEIKGGGGSAAAIEVMYPPPYLDNEKSNGTIIHVKGKHLCPSPLFPGPSKPFWVLVVVGGVLACYSLLVTVAFIIFWVRSKRSRLLHSDYMNMTPRRPGPTRKHYQPYAPPRDFAAYRSRVKFSRSAEPPAYQQGQNQLYNELNLGRREEYDVLDKRRGRDPEMGGKPRRKNPQEGLYNELQKDKMAEAYSEIGMKGERRRGKGHDGLYQGLSTATKDTYDALHMQALPPR
% of dead Raji cells in co-culture with CAR-T cells (Lipid 9 or DLin-KC3-DMA LNPs), against mCherry transfected T-cells [5]: 4 fold
% of dead Raji cells in co-culture with CAR-T cells (Lipid 15 or DLin-KC3-DMA LNPs), against mCherry transfected T-cells [5]: 4 fold
